Measurements: article PMC5893306 (Molecular pharmaceutics, 2018)

Experiment: Rat pharmacokinetics, IV and SC
Assay type: in vivo, Sprague Dawley rats
Settings: for Vd / half-life / Tmax / bioavailability / clearance: Sprague-Dawley, rat, plasma; for increase in half-life upon IV or SC dosing / reduction of clearance: rats, compared to PIE12-trimer; for reduction of clearance: IV

| SMILES | Vd (iv) [L/kg] | half-life (iv) [h] | Tmax (sc) [h] | bioavailability (sc) [%] | half-life (sc) [h] | increase in half-life upon IV or SC dosing [fold] | reduction of clearance | clearance (iv) [mL/min/kg] |
| --- | --- | --- | --- | --- | --- | --- | --- | --- |
| CCCCCCCCCCCCCCCCSC1CC(=O)N(CCC(=O)NCCOCCOCCOCCOCCOCCOCCOCCOCCOCCOCCOCCOCCOCCOCCOCCOCCOCCOCCOCCOCCOCCOCCOCCOCCC(=O)NC(COCCC(=O)NCCOCCOCCOCCOCCC(=O)NCCCC[C@@H](NC(=O)CNC(=O)[C@@H](CC(C)C)NC(=O)[C@@H](CCC(=O)O)NC(=O)[C@H]2CSSC[C@@H](NC(=O)[C@H]3CCCN3C(=O)[C@@H](Cc3c[nH]cn3)NC(C)=O)C(=O)N[C@H](CC(=O)O)C(=O)N[C@H](Cc3ccc(O)cc3)C(=O)N3CCC[C@@H]3C(=O)N[C@H](CCC(=O)O)C(=O)N[C@H](Cc3c[nH]c4ccccc34)C(=O)N[C@H](CCC(N)=O)C(=O)N[C@H](Cc3c[nH]c4ccccc34)C(=O)N[C@H](CC(C)C)C(=O)N2)C(N)=O)(COCCC(=O)NCCOCCOCCOCCOCCC(=O)NCCCC[C@@H](NC(=O)CNC(=O)[C@@H](CC(C)C)NC(=O)[C@@H](CCC(=O)O)NC(=O)[C@H]2CSSC[C@@H](NC(=O)[C@H]3CCCN3C(=O)[C@@H](Cc3c[nH]cn3)NC(C)=O)C(=O)N[C@H](CC(=O)O)C(=O)N[C@H](Cc3ccc(O)cc3)C(=O)N3CCC[C@@H]3C(=O)N[C@H](CCC(=O)O)C(=O)N[C@H](Cc3c[nH]c4ccccc34)C(=O)N[C@H](CCC(N)=O)C(=O)N[C@H](Cc3c[nH]c4ccccc34)C(=O)N[C@H](CC(C)C)C(=O)N2)C(N)=O)COCCC(=O)NCCOCCOCCOCCOCCC(=O)NCCCC[C@@H](NC(=O)CNC(=O)[C@@H](CC(C)C)NC(=O)[C@@H](CCC(=O)O)NC(=O)[C@H]2CSSC[C@@H](NC(=O)[C@H]3CCCN3C(=O)[C@@H](Cc3c[nH]cn3)NC(C)=O)C(=O)N[C@H](CC(=O)O)C(=O)N[C@H](Cc3ccc(O)cc3)C(=O)N3CCC[C@@H]3C(=O)N[C@H](CCC(=O)O)C(=O)N[C@H](Cc3c[nH]c4ccccc34)C(=O)N[C@H](CCC(N)=O)C(=O)N[C@H](Cc3c[nH]c4ccccc34)C(=O)N[C@H](CC(C)C)C(=O)N2)C(N)=O)C1=O (some centres unmarked) [C16-PIE12-trimer] | 0.137 | 0.9 | 1 | 38 | 1.2 | < 2 | 5-8 fold |  |
| CCCCCCCCCCCCCCCCCCSC1CC(=O)N(CCC(=O)NCCOCCOCCOCCOCCOCCOCCOCCOCCOCCOCCOCCOCCOCCOCCOCCOCCOCCOCCOCCOCCOCCOCCOCCOCCC(=O)NC(COCCC(=O)NCCOCCOCCOCCOCCC(=O)NCCCC[C@@H](NC(=O)CNC(=O)[C@@H](CC(C)C)NC(=O)[C@@H](CCC(=O)O)NC(=O)[C@H]2CSSC[C@@H](NC(=O)[C@H]3CCCN3C(=O)[C@@H](Cc3c[nH]cn3)NC(C)=O)C(=O)N[C@H](CC(=O)O)C(=O)N[C@H](Cc3ccc(O)cc3)C(=O)N3CCC[C@@H]3C(=O)N[C@H](CCC(=O)O)C(=O)N[C@H](Cc3c[nH]c4ccccc34)C(=O)N[C@H](CCC(N)=O)C(=O)N[C@H](Cc3c[nH]c4ccccc34)C(=O)N[C@H](CC(C)C)C(=O)N2)C(N)=O)(COCCC(=O)NCCOCCOCCOCCOCCC(=O)NCCCC[C@@H](NC(=O)CNC(=O)[C@@H](CC(C)C)NC(=O)[C@@H](CCC(=O)O)NC(=O)[C@H]2CSSC[C@@H](NC(=O)[C@H]3CCCN3C(=O)[C@@H](Cc3c[nH]cn3)NC(C)=O)C(=O)N[C@H](CC(=O)O)C(=O)N[C@H](Cc3ccc(O)cc3)C(=O)N3CCC[C@@H]3C(=O)N[C@H](CCC(=O)O)C(=O)N[C@H](Cc3c[nH]c4ccccc34)C(=O)N[C@H](CCC(N)=O)C(=O)N[C@H](Cc3c[nH]c4ccccc34)C(=O)N[C@H](CC(C)C)C(=O)N2)C(N)=O)COCCC(=O)NCCOCCOCCOCCOCCC(=O)NCCCC[C@@H](NC(=O)CNC(=O)[C@@H](CC(C)C)NC(=O)[C@@H](CCC(=O)O)NC(=O)[C@H]2CSSC[C@@H](NC(=O)[C@H]3CCCN3C(=O)[C@@H](Cc3c[nH]cn3)NC(C)=O)C(=O)N[C@H](CC(=O)O)C(=O)N[C@H](Cc3ccc(O)cc3)C(=O)N3CCC[C@@H]3C(=O)N[C@H](CCC(=O)O)C(=O)N[C@H](Cc3c[nH]c4ccccc34)C(=O)N[C@H](CCC(N)=O)C(=O)N[C@H](Cc3c[nH]c4ccccc34)C(=O)N[C@H](CC(C)C)C(=O)N2)C(N)=O)C1=O (some centres unmarked) [C18-PIE12-trimer] | 0.227 | 1.1 | 2 | 94 | 1.4 | < 2 | 5-8 fold | 2.5 |
| CC(=O)N[C@H](Cc1c[nH]cn1)C(=O)N1CCC[C@@H]1C(=O)N[C@@H]1CSSC[C@H](C(=O)N[C@H](CCC(=O)O)C(=O)N[C@H](CC(C)C)C(=O)NCC(=O)N[C@H](CCCCNC(=O)CCOCCOCCOCCOCCNC(=O)CCOCC(C)(COCCC(=O)NCCOCCOCCOCCOCCC(=O)NCCCC[C@@H](NC(=O)CNC(=O)[C@@H](CC(C)C)NC(=O)[C@@H](CCC(=O)O)NC(=O)[C@H]2CSSC[C@@H](NC(=O)[C@H]3CCCN3C(=O)[C@@H](Cc3c[nH]cn3)NC(C)=O)C(=O)N[C@H](CC(=O)O)C(=O)N[C@H](Cc3ccc(O)cc3)C(=O)N3CCC[C@@H]3C(=O)N[C@H](CCC(=O)O)C(=O)N[C@H](Cc3c[nH]c4ccccc34)C(=O)N[C@H](CCC(N)=O)C(=O)N[C@H](Cc3c[nH]c4ccccc34)C(=O)N[C@H](CC(C)C)C(=O)N2)C(N)=O)COCCC(=O)NCCOCCOCCOCCOCCC(=O)NCCCC[C@@H](NC(=O)CNC(=O)[C@@H](CC(C)C)NC(=O)[C@@H](CCC(=O)O)NC(=O)[C@H]2CSSC[C@@H](NC(=O)[C@H]3CCCN3C(=O)[C@@H](Cc3c[nH]cn3)NC(C)=O)C(=O)N[C@H](CC(=O)O)C(=O)N[C@H](Cc3ccc(O)cc3)C(=O)N3CCC[C@@H]3C(=O)N[C@H](CCC(=O)O)C(=O)N[C@H](Cc3c[nH]c4ccccc34)C(=O)N[C@H](CCC(N)=O)C(=O)N[C@H](Cc3c[nH]c4ccccc34)C(=O)N[C@H](CC(C)C)C(=O)N2)C(N)=O)C(N)=O)NC(=O)[C@@H](CC(C)C)NC(=O)[C@@H](Cc2c[nH]c3ccccc23)NC(=O)[C@@H](CCC(N)=O)NC(=O)[C@@H](Cc2c[nH]c3ccccc23)NC(=O)[C@@H](CCC(=O)O)NC(=O)[C@H]2CCCN2C(=O)[C@@H](Cc2ccc(O)cc2)NC(=O)[C@@H](CC(=O)O)NC1=O [PIE12-trimer] | 0.704 | 0.6 | 0.5 |  | 0.8 |  |  | 13.9 |
